Values quoted from earlier work, collected in publication PMC3045386.

Target: Ran (Homo sapiens) (UniProt P62826)

Kd: 10 µM
Substance: RanBP3 (from UniProt Q9H6Z4)
